Series [1] deals with the molecule itself. Kind of series: cross-linking; glutaraldehyde 0.008% or 0.024%, ACDs at 3 mg/mL in 25 mM HEPES pH 7.5, 30 min at 30 °C; Tricine–SDS–PAGE.
A further series has as its target T1, full-length HspB6 (human, UniProt O14558 1-160).
T1 construct: Predominantly dimeric by cited work; also called B6FL
T1 sequence (looked up): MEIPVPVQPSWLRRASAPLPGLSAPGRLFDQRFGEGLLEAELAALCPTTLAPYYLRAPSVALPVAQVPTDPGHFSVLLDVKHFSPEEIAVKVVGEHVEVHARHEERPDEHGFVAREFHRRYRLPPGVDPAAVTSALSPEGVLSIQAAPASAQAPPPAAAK
The experiment in a line: native gel or EMSA; clear native PAGE, 12.5% gel, 80 mM glycine–Tris pH 8.6; sHsp 5–6 μM per monomer mixed with ACD 20–24 μM per monomer, 30 min at 25 °C in buffer B; Western blot with anti-HspB6 for the complexes of HspB6. Conditions: both partners purified. Background: In EMSA bound probe runs differently from free probe, usually more slowly.

Series [2] concerns the target T2, 3D mutant of HspB1 (S15D, S78D, S82D) (human, UniProt P04792 1-205, S15D | S78D | S82D).
T2 construct: human HspB1, full length, with three phosphomimicking point mutations; Forms small oligomers (probably dimers or tetramers, by cited work); also called full-length 3D mutant
The experiment in a line: SEC; full-length sHsp (~19–20 μM per monomer) mixed with ACD (38–110 μM per monomer) in buffer B, 30 min at 42 °C; Superdex 200 Increase column in 50 mM phosphate pH 7.4, 150 mM NaCl, 2 mM DTT; fractions analysed by SDS–PAGE. Particulars: both partners purified. On the technique in general: In gel filtration, larger molecules generally elute earlier.

Series [3] concerns the molecule itself. The experiment in a line: SEC; Superdex 75 10/300 GL, 50 mM phosphate pH 7.4, 150 mM NaCl, 2 mM DTT; 25 μL samples of 16–150 μg (25–600 μM per monomer); apparent dissociation constant, dimer to monomers, from a hyperbolic fit of elution volume against the concentration loaded.

T2 sequence (P04792 whole entry S15D/S78D/S82D): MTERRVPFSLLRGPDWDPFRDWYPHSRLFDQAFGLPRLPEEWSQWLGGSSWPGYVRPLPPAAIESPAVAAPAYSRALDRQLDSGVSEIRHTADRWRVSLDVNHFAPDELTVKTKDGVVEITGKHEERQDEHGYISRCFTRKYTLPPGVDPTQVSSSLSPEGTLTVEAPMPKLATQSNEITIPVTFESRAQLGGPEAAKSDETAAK

B1: α-crystallin domain of HspB5 (B5ACD) (domain or fragment, human, UniProt P02511 64-150, looked up)
chain: GLSEMRLEKDRFSVNLDVKHFSPEELKVKVLGDVIEVHGKHEERQDEHGFISREFHRKYRIPADVDPLTITSSLSSDGVLTVNGPRK
notes: human HspB5 (αB-crystallin), α-crystallin domain, residues 64-150; Cloned by NdeI and XhoI into pET23b; In equilibrium of monomers and dimers; also called HspB5 ACD; source: E. coli, purified (ammonium sulfate fractionation, ion-exchange chromatography, size-exclusion chromatography)
For the molecule B1, the “stoichiometry N” value in series [1] amounted to 2. Besides, the binding result (with full-length HspB6; in series [2]) was “binds” each time. Moreover, in series [3], the Kd was 127 µM.

B2: α-crystallin domain of HspB6 (B6ACD) (domain or fragment, human, UniProt O14558 64-149, looked up)
chain: VAQVPTDPGHFSVLLDVKHFSPEEIAVKVVGEHVEVHARHEERPDEHGFVAREFHRRYRLPPGVDPAAVTSALSPEGVLSIQAAPA
notes: human HspB6, α-crystallin domain, residues 64-149; Cloned by NdeI and XhoI into pET23b; In equilibrium of monomers and dimers; also called HspB6 ACD; source: E. coli, purified (ammonium sulfate fractionation, ion-exchange chromatography, size-exclusion chromatography)
For B2, in series [2], the binding result is recorded as “binds”. Moreover, the Kd in series [3] was determined as 162 µM.

For orientation: stoichiometry N means the number of molecules, sites or subunits per partner or assembly.

The values are drawn from publication PMC9860685, “α-Crystallin Domains of Five Human Small Heat Shock Proteins (sHsps) Differ in Dimer Stabilities and Ability to Incorporate Themselves into Oligomers of Full-Length sHsps” (International Journal of Molecular Sciences, 2023).
